Reference: US20090298765A1 (Takeda / Millennium, published 2009)
Non-standard residues stand in square brackets, D forms with d. No end group written: not given here. *: point of attachment. Propanoyl(3-(3-pyridyl)) = O=C(CCc1cccnc1)*; Arg(Me) = CNC(=N)NCCC[C@H](N)C(=O)O; 4Pal = N[C@@H](Cc1ccncc1)C(=O)O; d4Pal = N[C@H](Cc1ccncc1)C(=O)O; azaGly = NNC(=O)O

Legend:
[1] = target: human OT7T175 (metastin receptor) (human) (UniProt Q969F8); assay: competition with Cy-5 metastin (40-54) on hOT7T175-CHO cells, FMAT
Sequence of human OT7T175 (metastin receptor) (human) (Q969F8 whole entry L364H): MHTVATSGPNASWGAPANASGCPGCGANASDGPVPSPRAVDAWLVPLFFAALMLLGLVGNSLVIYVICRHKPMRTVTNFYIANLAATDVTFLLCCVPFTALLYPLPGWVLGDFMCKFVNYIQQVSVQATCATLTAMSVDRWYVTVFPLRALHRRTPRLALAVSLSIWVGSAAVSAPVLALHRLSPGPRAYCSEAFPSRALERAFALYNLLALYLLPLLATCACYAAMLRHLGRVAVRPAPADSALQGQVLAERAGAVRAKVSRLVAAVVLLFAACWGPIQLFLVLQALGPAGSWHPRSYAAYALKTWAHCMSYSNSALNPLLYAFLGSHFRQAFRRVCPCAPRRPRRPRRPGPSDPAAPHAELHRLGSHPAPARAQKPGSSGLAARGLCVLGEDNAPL

[2] = target: human OT7T175 (metastin receptor) (human) (UniProt Q969F8); assay: cell-based or functional assay
[3] = target: T1, human OT7T175 (metastin receptor) (human, UniProt Q969F8 1-398); assay: cell-based or functional assay
T1 sequence (Q969F8 whole entry L364H): as above

[4] = target: T1, human OT7T175 (metastin receptor); assay: cell-based or functional assay; remark: listed apart in the source
[5] = target: T1, human OT7T175 (metastin receptor); assay: cell-based or functional assay; remark: listed apart in the source
[6] = target: T1, human OT7T175 (metastin receptor); assay: competition with Cy-5 metastin (40-54) on hOT7T175-CHO cells, FMAT
[7] = target: T1, human OT7T175 (metastin receptor); assay: cell-based or functional assay; remark: listed apart in the source

Molecule | Ca ion level-increasing activity (FLIPR, 40 s) [4] [EC50/MS10 EC50] | cell growth inhibition activity, IC50 [5] [nM] | IC50 [6] [nM] | Ca ion level-increasing activity (FLIPR) [7] | also measured
[D-Tyr1,D-Asn2,D-Trp3,AzaGly7,Arg(Me)9]MS10 (peptide) | – | – | – | – | IC50 [1]: 49 nM; Ca ion level-increasing activity (FLIPR) (x Metastin (1-54)) [2]: 1
[D-Tyr1,D-Asn2,D-Trp3,Arg(Me)9]MS10 (peptide) | – | – | – | – | Ca ion level-increasing activity (FLIPR) (x Metastin (1-54)) [2]: 1
des(4-5)-Boc-MS10 (peptide) | – | – | – | – | Ca ion level-increasing activity (FLIPR) (x Metastin (1-54)) [3]: 1
des(4-5)-MS10 (peptide) | – | – | – | – | Ca ion level-increasing activity (FLIPR) (x Metastin (1-54)) [3]: 1
[dY][dN][4Pal]NSF[azaGly]L[Arg(Me)]F-NH2 (also called Compound No. 303) [[D-Tyr1,D-Asn2,Pya(4)3,AzaGly7,Arg(Me)9]MS10] | 6.9 | 41.2 | 0.5 | 5 x Metastin (1-54) | –
[dY][d4Pal]NSF[azaGly]L[Arg(Me)]F-NH2 (N-terminus assumed; SMILES CNC(=N)NCCC[C@H](NC(=O)[C@H](CC(C)C)NC(=O)NNC(=O)[C@H](Cc1ccccc1)NC(=O)[C@H](CO)NC(=O)[C@H](CC(N)=O)NC(=O)[C@@H](Cc1ccncc1)NC(=O)[C@H](N)Cc1ccc(O)cc1)C(=O)N[C@@H](Cc1ccccc1)C(N)=O, also called Compound No. 305; KiSS1-305) [des(1)-[D-Tyr2,D-Pya(4)3,AzaGly7,Arg(Me)9]MS10] | 2 | 8.94 | 1.3 | 5 x Metastin (1-54) | –
{Propanoyl(3-(3-pyridyl))}-NSF[azaGly]L[Arg(Me)]F-NH2 (SMILES CNC(=N)NCCC[C@H](NC(=O)[C@H](CC(C)C)NC(=O)NNC(=O)[C@H](Cc1ccccc1)NC(=O)[C@H](CO)NC(=O)[C@H](CC(N)=O)NC(=O)CCc1cccnc1)C(=O)N[C@@H](Cc1ccccc1)C(N)=O, also called Compound No. 322) [des(1-3)-3-(3-Pyridyl)propionyl-[AzaGly7,Arg(Me)9]MS10] | 5.4 | 71.9 | 54 | 1 x Metastin (1-54) | –
